According to patent US20200172620A1 (Genentech, published 2020):
Values belong to the binder of their own block, whether it stands above or below them.

Legend:
[1] = molecular target: T1, cynomolgous CD8 (as used in SPR) (cynomolgous monkey); experiment: SPR, Fab
T1 construct: also called cyno CD8

[2] = molecular target: T2, human CD8 (as used in SPR) (human, UniProt P01732 22-182); experiment: SPR (Fab, by paragraph 255)
T2 construct: also called huCD8

[3] = molecular target: T1, cynomolgous CD8 (as used in SPR); experiment: SPR (Fab, by paragraph 255)
[4] = molecular target: T2, human CD8 (as used in SPR); experiment: SPR
[5] = molecular target: T3, cynomolgous CD8 on cells (FACS) (cynomolgous monkey); experiment: FACS
T3 construct: whole, on cells; also called cyno CD8

[6] = molecular target: T4, human CD8 on cells (FACS) (human, UniProt P01732 22-235); experiment: FACS
T4 construct: whole, on cells
T4 sequence (P01732 22-235): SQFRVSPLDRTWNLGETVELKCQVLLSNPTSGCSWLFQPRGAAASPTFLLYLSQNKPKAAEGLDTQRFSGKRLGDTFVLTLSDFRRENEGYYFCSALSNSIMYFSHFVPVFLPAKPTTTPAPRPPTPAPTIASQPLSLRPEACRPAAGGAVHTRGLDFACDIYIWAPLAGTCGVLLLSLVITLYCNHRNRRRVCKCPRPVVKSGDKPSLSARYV

[7] = molecular target: T5, rhesus CD8 on cells (FACS) (rhesus monkey, UniProt P01732 23-235 (human entry)); experiment: FACS
T5 construct: also called rhesus monkey CD8
T5 sequence (P01732 other isoform, or with tags, fused parts or gaps limits assumed): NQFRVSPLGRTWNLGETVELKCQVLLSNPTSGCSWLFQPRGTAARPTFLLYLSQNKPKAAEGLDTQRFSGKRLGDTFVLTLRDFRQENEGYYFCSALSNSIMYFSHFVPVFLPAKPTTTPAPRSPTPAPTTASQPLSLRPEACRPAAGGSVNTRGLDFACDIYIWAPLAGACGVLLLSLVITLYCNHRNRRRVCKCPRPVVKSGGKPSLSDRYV

[8] = molecular target: T1, cynomolgous CD8 (as used in SPR); experiment: SPR
[9] = molecular target: T2, human CD8 (as used in SPR); experiment: SPR, Fab
[10] = molecular target: T6, rat CD8 on CD8+ cells isolated from rat blood (rat, UniProt P07725 27-236); experiment: FACS with CD8+ cells isolated from rat blood
T6 construct: whole, on cells
T6 sequence (looked up): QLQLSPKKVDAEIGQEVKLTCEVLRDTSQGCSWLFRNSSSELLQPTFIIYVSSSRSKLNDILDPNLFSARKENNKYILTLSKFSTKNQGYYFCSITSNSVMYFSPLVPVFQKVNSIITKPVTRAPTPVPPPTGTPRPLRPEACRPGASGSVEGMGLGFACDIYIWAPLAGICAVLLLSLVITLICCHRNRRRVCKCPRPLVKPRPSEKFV

[11] = molecular target: T4, human CD8 on cells (FACS); experiment: FACS titration on cells carrying human CD8 (legend paragraph 23: CHO cells expressing recombinant human CD8; text paragraph 256: PBMCs)
[12] = molecular target: T7, mouse CD8 on CD8+ cells isolated from mouse blood (mouse, UniProt P01731 28-247); experiment: FACS with CD8+ cells isolated from mouse blood
T7 construct: whole, on cells
T7 sequence (P01731 28-247): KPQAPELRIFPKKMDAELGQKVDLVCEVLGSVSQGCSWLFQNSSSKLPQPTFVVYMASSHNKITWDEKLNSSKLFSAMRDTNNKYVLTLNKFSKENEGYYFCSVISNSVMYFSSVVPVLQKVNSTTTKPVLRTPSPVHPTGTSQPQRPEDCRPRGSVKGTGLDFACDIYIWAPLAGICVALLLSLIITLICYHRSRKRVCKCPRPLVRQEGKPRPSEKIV

T2 sequence (P01732 22-182): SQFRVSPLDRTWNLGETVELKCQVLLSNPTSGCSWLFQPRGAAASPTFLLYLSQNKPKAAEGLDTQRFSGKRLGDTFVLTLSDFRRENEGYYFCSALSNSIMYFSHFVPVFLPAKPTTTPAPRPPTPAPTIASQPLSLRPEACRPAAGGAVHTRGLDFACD

- Ratio of KD huOKT8.v1/KD variant for binding to huCD8 [4]: 18 X
B4: huOKT8.v10 (antibody, V domains shown)
VH: EVQLVQSGAEVKKPGASVKVSCKASGFNIKDTYIHWVRQAPGQGLEWIGRIDPANDNTLYASKFQGRATITADTSTSTAYLELSSLRSEDTAVYYCGRGYGYYVFDHWGQGTLVTVSS
VL: DVQITQSPSSLSASVGDRVTITCRTSRSISQYLAWYQEKPGKTNKLLIYSGSTLQSGIPSRFSGSGSGTDFTLTISSLQPEDFATYYCQQHNEFPPTFGQGTKVEIKR
notes: The entries as printed are a Fab heavy chain and a whole kappa light chain

- Ratio of KD huOKT8.v1/KD variant for binding to huCD8 [4]: 210 X
B5: huOKT8.v17 (antibody, V domains shown)
VH: EVQLVQSGAEVKKPGASVKVSCKASGFNIKDTYIHWVRQAPGQGLEWIGRIDPANDNTLYASKFQGRATITADTSTSTAYLELSSLRSEDTAVYYCGRGYGYYVFDHWGQGTLVTVSS
VL: DVQITQSPSSLSASVGDRVTITCRTSRSISKYLAWYQEKPGKTNKLLIYSGSTLQSGIPSRFSGSGSGTDFTLTISSLQPEDFATYYCQQVNEFPVTFGQGTKVEIKR
notes: as for B4

- Ratio of KD huOKT8.v1/KD variant for binding to huCD8 [4]: 210 X
B6: huOKT8.v15 (antibody, V domains shown)
VH: EVQLVQSGAEVKKPGASVKVSCKASGFNIKDTYIHWVRQAPGQGLEWIGRIDPANDNTLYARKFQGRATITADTSTSTAYLELSSLRSEDTAVYYCTRGYGYYVFDTWGQGTLVTVSS
VL: DVQITQSPSSLSASVGDRVTITCRTSRSISQYLAWYQEKPGKTNKLLIYSGSTLQSGIPSRFSGSGSGTDFTLTISSLQPEDFATYYCQQVNEFPVTFGQGTKVEIKR
notes: as for B4

- fold improvement in binding compared to huOKT8.v1 [9]: 55 fold
- fold improvement in binding compared to huOKT8.v1 [1]: 230 fold
- binding result [10]: no binding
- EC50 (read off the curve) [11]: ~0.8 µg/mL
- Kd [2]: 0.2 nM
- Kd [3]: 23 nM
- Ratio of KD huOKT8.v1/KD variant for binding to huCD8 [4]: 37 X
- Kd [5]: 13 nM
- Kd [6]: 2 nM
- Kd [7]: 20 nM
- binding result [12]: no binding
B7: huOKT8.v11 (Fab, V domains shown)
VH: EVQLVQSGAEVKKPGASVKVSCKASGFNIKDTYIHWVRQAPGQGLEWIGRIDPANDNTLYASKFQGRATITADTSTSTAYLELSSLRSEDTAVYYCGRGYGYYVFDHWGQGTLVTVSS
VL: DVQITQSPSSLSASVGDRVTITCRTSRSISQYLAWYQEKPGKTNKLLIYSGSTLQSGIPSRFSGSGSGTDFTLTISSLQPEDFATYYCQQVNEFPPTFGQGTKVEIKR
notes: also called OKT.v11 Fab

Continued, binder first:

B1: huOKT8.v9 (Fab, V domains shown)
VH: EVQLVQSGAEVKKPGASVKVSCKASGFNIKDTYIHWVRQAPGQGLEWIGRIDPANDNTLYASKFQGRATITADTSTSTAYLELSSLRSEDTAVYYCGRGYGYYVFDHWGQGTLVTVSS
VL: DVQITQSPSSLSASVGDRVTITCRTSRSISQYLAWYQEKPGKTNKLLIYSGSTLQSGIPSRFSGSGSGTDFTLTISSLQPEDFATYYCQQHNEFPVTFGQGTKVEIKR
notes: also called OKT.v9 Fab
- fold improvement in binding compared to huOKT8.v1 [1]: 50 fold
- Kd [2]: 0.3 nM
- Kd [3]: 103 nM
- Ratio of KD huOKT8.v1/KD variant for binding to huCD8 [4]: 37 X
- Kd [5]: 44 nM
- Kd [6]: 2 nM
- Kd [7]: 121 nM

B2: huOKT8.v1 (antibody, V domains shown)
VH: EVQLVQSGAEVKKPGASVKVSCKASGFNIKDTYIHWVRQAPGQGLEWIGRIDPANDNTLYASKFQGRATITADTSTSTAYLELSSLRSEDTAVYYCGRGYGYYVFDHWGQGTLVTVSS
VL: DVQITQSPSSLSASVGDRVTITCRTSRSISQYLAWYQEKPGKTNKLLIYSGSTLQSGIPSRFSGSGSGTDFTLTISSLQPEDFATYYCQQHNENPLTFGQGTKVEIK
- Kd [8]: 5250 nM

B3: huOKT8.v12 (antibody, V domains shown)
VH: EVQLVQSGAEVKKPGASVKVSCKASGFNIKDTYIHWVRQAPGQGLEWIGRIDPANDNTLYASKFQGRATITADTSTSTAYLELSSLRSEDTAVYYCGRGYGYYVFDHWGQGTLVTVSS
VL: DVQITQSPSSLSASVGDRVTITCRTSRSISQYLAWYQEKPGKTNKLLIYSGSTLQSGIPSRFSGSGSGTDFTLTISSLQPEDFATYYCQQVNEFPVTFGQGTKVEIK
- Ratio of KD huOKT8.v1/KD variant for binding to huCD8 [4]: 73 X
